# Assay results published in PMC5771576.
# Where two headings read alike, the source gives them in different places.
# What was measured:
# [1] = molecular target: T1, Cys14 (UniProt position 15, AANWKCNGSES); assay: chemical modification; conditions: not stated for the 1 min MMTS incubation (activity assay at 25°C); 100 mM TEA, 10 mM EDTA; ligand-free folded enzyme, 250 ug/mL
# [2] = molecular target: T1, Cys14; conditions: cited from earlier work
# [3] = molecular target: T2, Cys14 (UniProt position 14, AANWKCNGSQQ); conditions: cited from earlier work
# [4] = molecular target: T2, Cys14; assay: chemical modification; conditions: not stated for the 1 min MMTS incubation (activity assay at 25°C); 100 mM TEA, 10 mM EDTA; ligand-free folded enzyme, 250 ug/mL
Substance,pKa [1],pKa [2],pKa [3],pKa [4]
"Triosephosphate isomerase triple mutant TcTIM: L28F, L100A, Q115A (Trypanosoma cruzi; L28F;L100A;Q115A)",10.69 ± 0.01,,,
Triosephosphate isomerase (WT TcTIM) (Trypanosoma cruzi),9.24 ± 0.04,9.27,,
Triosephosphate isomerase (WT TbTIM) (Trypanosoma brucei),,,10.53,10.56 ± 0.22
"Triosephosphate isomerase triple mutant TbTIM: F28L, A100L, A115Q (Trypanosoma brucei; F28L;A100L;A115Q)",,,,9.23 ± 0.03
